Results taken from PMC2993938, “Characterization of an Antennal Carboxylesterase from the Pest Moth Spodoptera littoralis Degrading a Host Plant Odorant” (PLoS ONE, 2010).

Substrate: CC/C=C\CCOC(C)=O
Test: GC quantification of (Z)-3-hexenol formed, nonlinear regression
Assay type: biochemical, Spodoptera littoralis
Settings: 20 mM Tris pH 7.4 and 28 °C (stated for the hydrolysis assay), 5 min incubation, 1 mM to 20 mM substrate, no detergent

B1: SlCXE10 (Spodoptera littoralis) (protein)
chain: MVQVRVSEGVLEGEQVQNEYGGSFYRFRGIPYAQPPLGDLRFKAPQPIKPWQGVRQAKQFGSVCYQYNPTNLGLSNMSEDCLYVNVYTPDIKPQTPIPVMVWIHGGGFMWGSGNDDLYGPEFLIRHNVVLVTFNYRLEALGFLCLDTADVPGNAGMKDQVAALRWVKRNIANFGGNPDNITIFGESAGGGSVSHHLISPMSKGLFNRAIPQSGSTACFWATAFEPKEKAILLAKQLGFHSEDPKELYEFFKKQPCENLVKLNLQVTTSQKSYEIHFSIANEKDFGQERFFYGDIVDVIKNNLQEGVDIMTGYTKDEYTIAVSIGGPLEDILAKAQRYREFFAPKLLHNYGTITDQLEAARKLQKFYFKNEKVSKDNIDNLLNYMSVDMFVYGVMFAAKLYSRKNKVYVYKFNCFSERNVLANAFCVGHLTDDRSVVSHADDLAYLFPVKLFTQKVNKTSVTFKLIDRVTTLWTNFAKYGNPTPDDSLGVKWLPYTLAAQDYMDIGNTLVPGNSPDKEELDFWESVLHQHLPKFSTLNQ
notes: complete ORF (no signal peptide), C-terminal 6His tag kept (pBlueBac4.5/V5-His TOPO), baculovirus / Sf21 cells, Ni-NTA purified, about 60 kDa (predicted 61 kDa)
- Km: 11.4 ± 4.8 mM
